Data from patent publication US20030135880A1, “Compositions and methods for halogenation reactions” (priority 2002, published 2003).
Like-named read-outs stand apart in the source and are kept apart here.

B1: Fre: E. coli flavin reductase (SEQ ID NO: 19), purified electron transferase (protein, listed as Escherichia coli)
chain: MTTLSCKVTSVEAITDTVYRVRIVPDAAFSFRAGQYLMVVMDERDKRPFSMASTPDEKGFIELHIGASEINLYAKAVMDRILKDHQIVVDIPHGEAWLRDDEERPMILIAGGTGFSYARSILLTALARNPNRDITIYWGGREEQHLYDLCELEALSLKHPGLQVVPVVEQPEAGWRGRTGTVLTAVLQDHGTLAEHDIYIAGRFEMAKIARDLFCSERNAREDRLFGDAFAFI
B2: cytochrome b5 reductase: Recombinant soluble domain of rat hepatic cytochrome b5 reductase (protein, listed as Rattus norvegicus)
chain: MGAQLSTLSRVVLSPVWFVYSLFMKLFQRSSPAITLENPDIKYPLRLIDKEIISHDTRRFRFALPSPQHILGLPIGQHIYLSTRIDGNLVIRPYTPVSSDDDKGLVDLVVKVYFKDTHPKFPAGGKMSQYLENMNIGDTIEFRGPNGLLVYQGKGKFAIRADKKSNPVVRTVKSVGMIAGGTGITPMLQVIRAVLKDPNDHTVCYLLFANQSEKDILLRPELEELRNEHSSRFKLWYTVDKAPDAWDYSQGFVNEEMIRDHLPPPGEETLILMCGPPPMIQFACLPNLERVGHPKERCFTF
B3: NADPH-cyt-P450 reductase: Rabbit liver NADPH-cyt-P450 reductase purchased from Sigma Chemical Co. (protein, listed as Oryctolagus cuniculus)
chain: LINMADSHGDTGATMPEAAAQEASVFSMTDVVLFSLIVGLITYWFLFRKKKEEVPEFTKIQAPTSSSVKESSFVEKMKKTGRNIVVFYGSQTGTAEEFANRLSKDAHRYGMRGMAADPEEYDLADLSSLPEINNALAVFCMATYGEGDPTDNAQDFYDWLQETDVDLSGVKYAVFGLGNKTYEHFNAMGKYVDQRLEQLGAQRIFELGMGDDDANLEEDFITWREQFWPAVCEHFGVEATGEESSIRQYELVLHTDIDVAKVYQGEMGRLKSYENQKPPFDAKNPFLATVTTNRKLNQGTERHLMHLELDISDSKIRYESGDHVAVYPANDSALVNQLGEILGADLDVVMSLNNLDEESNKKHPFPCPTSYRTALTYYLDITNPPRTNVLYELAQYAADPAEQEQLRKMASSSGEGKELYLSWVVEARRHILAILQDYPSLRPPIDHLCELLPRLQARYYSIASSSKVHPNSVHICAVAVEYETKAGRLNKGVATSWLRAKEPAGENGGRALVPMFVRKSQFRLPFKATTPVIMVGPGTGVAPFIGFIQERAWLRQQGKEVGETLLYYGCRRAAEDYLYREELAGFQKDGTLSQLNVAFSREQAQKVYVQHLLRRDKEHLWRLIHEGGAHIYVCGDARNMARDVQNTFYDIVAELGAMEHAQAVDYVKKLMTKGRYSLDVWS
B4: FNR: Spinach ferredoxin NADP reductase (protein, UniProt P00455 56-369, looked up)
Ferredoxin--NADP reductase, …: QIASDVEAPPPAPAKVEKHSKKMEEGITVNKFKPKTPYVGRCLLNTKITGDDAPGETWHMVFSHEGEIPYREGQSVGVIPDGEDKNGKPHKLRLYSIASSALGDFGDAKSVSLCVKRLIYTNDAGETIKGVCSNFLCDLKPGAEVKLTGPVGKEMLMPKDPNATIIMLGTGTGIAPFRSFLWKMFFEKHDDYKFNGLAWLFLGVPTSSSLLYKEEFEKMKEKAPDNFRLDFAVSREQTNEKGEKMYIQTRMAQYAVELWEMLKKDNTYFYMCGLKGMEKGIDDIMVSLAAAEGIDWIEYKRQLKKAEQWNVEVY
B5: NAD(P)H:FMN reductase: Photobacterium fischeri NAD(P)H:FMN reductase purchased from Roche (protein, listed as Vibrio fischeri)
chain: MPINCKVKSIEPLACNTFRILLHPEQPVAFKAGQYLTVVMGEKDKRPFSIASSPCRHEGEIELHIGAAEHNAYAGEVVESMKSALETGGDILIDAPHGEAWIREDSDRSMLLIAGGTGFSYVRSILDHCISQQIQKPIYLYWGGRDECQLYAKAELESIAQAHSHITFVPVVEKSEGWTGKTGNVLEAVKADFNSLADMDIYIAGRFEMAGAAREQFTTEKQAKKEQLFGDAFAFI

Columns and labels:
PrnA [1] = biological target: T1, PrnA (Pseudomonas fluorescens, UniProt P95480); assay: Activation of PrnA by electron transferases, 2 h assay (Example 2); format: biochemical; set-up: made in house; host or cells: Pseudomonas fluorescens BL915deltaORF1-4 with plasmid pPEH14 (prnA); conditions: 20 microliter PrnA, 50 microliter NADH, 50 microliter electron transferase, room temperature
T1 sequence (P95480 whole entry): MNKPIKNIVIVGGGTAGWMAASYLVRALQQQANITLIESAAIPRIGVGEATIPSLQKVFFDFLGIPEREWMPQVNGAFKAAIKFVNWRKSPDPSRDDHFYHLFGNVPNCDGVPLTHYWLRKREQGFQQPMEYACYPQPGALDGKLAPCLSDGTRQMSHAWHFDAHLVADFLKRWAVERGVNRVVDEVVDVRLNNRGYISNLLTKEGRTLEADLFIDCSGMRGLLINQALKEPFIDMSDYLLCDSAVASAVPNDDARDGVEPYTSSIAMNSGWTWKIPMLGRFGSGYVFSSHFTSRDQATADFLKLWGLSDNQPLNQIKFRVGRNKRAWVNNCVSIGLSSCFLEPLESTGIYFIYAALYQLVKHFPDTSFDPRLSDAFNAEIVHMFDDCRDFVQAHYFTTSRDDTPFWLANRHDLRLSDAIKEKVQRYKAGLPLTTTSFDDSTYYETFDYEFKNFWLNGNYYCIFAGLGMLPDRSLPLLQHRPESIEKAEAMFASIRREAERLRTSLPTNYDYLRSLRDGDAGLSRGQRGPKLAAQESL
Method: The following components are used in examples 1-4 below: PrnA (described for Example 1 above) at 0.36 mg/ml, Assay Mixture containing HEPES (100 mM), glucose-6-phosphate, disodium salt (50 mM), D-Trp (5 mM), NaCl (5 mM). Aspergillus niger catalase (39 U/ml), bovine erythrocyte superoxide dismutase (15 U/ml), Leuconostoc mesenteroides glucose-6-phosphate dehydrogenase (10 U/ml). NADH-(3 mg/ml) NADPH (3 mg/ml).
Each assay contains the assay mixture, either NADH (for samples containing Fre and the NAD(P)H:FMN reductase) or NADPH (for samples containing FNR or FNR and Fd), PrnA and the indicated electron transferase. Negative control samples are incubated in parallel; these substituted buffer for PrnA. Quantification standards are prepared by diluting 0,1, 2 or 5 microliter of 7-Cl-Trp standard (1 mM) in 100 microliter Assay Mixture, 50 microliter NADH, 20 microliter PrnA and 50 microliter buffer; the tubes were heated to 100 C. prior to addition of PrnA, then heated an additional 2 min. Further processing is in parallel with the enzymatic reactions. All samples are mixed for 2 h at room temperature. Reactions are stopped and samples processed as described above in Example 1, including using the HPLC Analytical method PrnA1 as described in Example 1.

PrnA [2] = biological target: T1, PrnA; format: biochemical; set-up: made in house; host or cells: Pseudomonas fluorescens BL915deltaORF1-4 with plasmid pPEH14 (prnA); conditions: 20 microliter PrnA, 20 microliter electron transferase, 20.5 hours, room temperature, triplicate
Method: Protein concentration or the preparation is 0.36 mg/ml.
Either a NADH dependent mixture or a NADPH mixture is used as indicated below. An NADH-dependent assay mixture is prepared by adding 12 mg of NADH to 4.5 ml of above described assay mixture. A NADPH-dependent assay mixture is prepared by adding 3 mg NADPH to 1 ml of the above described assay mixture.
The reactions 1-7, described below, are set up in polypropylene tubes in triplicate. After mixing PrnA, the indicated assay mixture and electron transferase, samples are vortexed, then mixed by inversion at room temperature. […] The HPLC analysis is by Method Set PrnA1 (described below), the injection volume is 50 microliter, and data are collected for the first 6 minutes.
Standards are prepared by mixing 5 or 10 microliter 7-Cl-Trp (1 mM) with sufficient 50 mM HEPES, pH 7.5 to bring the final volume to 200 microliter. D-Trp is eluted at ˜2 min and 7-Cl-trp is eluted at 4.3 min, as indicated by the elution of the authentic D-Trp and 7-Cl-Trp. The quantity of 7-Cl-trp is determined by comparison to a standard curve. Reported activities are the net increase in 7-Cl-Trp after addition of the electron transferase.
A Waters Alliance HPLC system with photodiode array detector is used. The Waters Alliance HPLC is equipped with a 4.6×50 mm column packed with C18-Silica, particle size 3 micrometer. A gradient elution method designated here as PrnA1 is used. Flow rates are 1 ml/min throughout and absorbance data are collected from 210 to 400 nm with a resolution of 1.2 nm and a sampling rate of 1/s. The system as pre-equilibrated with an 85:15 mixture of water:methanol. After injection of the sample the column is developed with a 6 min gradient from the starting conditions to a 40:60 water:methanol mixture. Then from 6.0 to 7.0 min the concentration of methanol is increased to 100% in a linear gradient. The column is washed for 1 min with 100% methanol, then re-equilibrated. D-Trp eluted at ˜2 min and 7-Cl-trp eluted at 4.3 min, as indicated by the elution of authentic D-Trp and 7-Cl-Trp.

PrnC = biological target: T2, PrnC (Pseudomonas fluorescens, UniProt P95482); assay: In vitro halogenation with PrnC: chlorination of MDA to APRN (Example 3); format: biochemical, P. fluorescens; conditions: Extract #2 (PrnC depleted of P2) plus 20 microliter electron transferase, NADH, overnight
T2 construct: made in house; host or cells: P. fluorescens (pPEH/prnC/134Δprn), plasmid pPEH-PrnC with tac promoter
T2 sequence (P95482 whole entry, looked up): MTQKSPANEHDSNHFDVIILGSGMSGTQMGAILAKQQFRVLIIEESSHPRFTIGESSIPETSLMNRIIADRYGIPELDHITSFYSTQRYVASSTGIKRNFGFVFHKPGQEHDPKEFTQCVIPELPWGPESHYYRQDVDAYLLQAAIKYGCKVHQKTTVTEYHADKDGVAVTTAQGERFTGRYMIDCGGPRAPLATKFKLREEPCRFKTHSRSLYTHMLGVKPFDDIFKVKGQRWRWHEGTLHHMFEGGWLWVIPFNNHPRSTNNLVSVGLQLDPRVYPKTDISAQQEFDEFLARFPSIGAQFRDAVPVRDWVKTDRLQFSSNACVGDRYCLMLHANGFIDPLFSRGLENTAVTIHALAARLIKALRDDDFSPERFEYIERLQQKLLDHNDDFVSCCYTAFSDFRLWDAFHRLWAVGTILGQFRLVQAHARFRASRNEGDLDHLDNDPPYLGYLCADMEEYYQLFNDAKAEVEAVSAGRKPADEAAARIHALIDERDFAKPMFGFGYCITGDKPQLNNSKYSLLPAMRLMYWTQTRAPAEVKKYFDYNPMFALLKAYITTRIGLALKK
Method: Fre, ferrodoxin NADP reductase, ferrodoxin and NADPH FMN-reductase are tested for the ability to activate P. fluorescens PrnC that was depleted of endogenous electron transferase (P2) as described below. PrnC catalyzes chlorination of monodechloroaminopyrrolnitrin (MDA) to yield aminopyrrolnitrin (APRN).
The following materials are prepared for use in assays described below. Buffer 100 mM Tris/Cl, 1 mM EDTA. pH 7.5. Monodechloroaminopyrrolnitrin (MDA) 74.2 mM is prepared by culture of Pseudomonas fluorescens expressing PrnA and PrnB as described in (Kirner et al,1998) which is herein incorporated by reference in its entirety. The assay mix comprises FAD (5 μM) and MDA (742 μM) in buffer. NADH is dissolved in buffer at a concentration of 6 mg/ml. or NADPH is dissolved in buffer at a concentration of 6 mg/ml. Extract #1 is a crude extract in buffer containing PrnC and the endogenous electron transferase P2 described above in example 1. […]
The assays described below are run as follows; Extract #2 is mixed with the indicated electron transferase, assay mix and either NADH or NADPH as indicated. The native activity of PrnC prior to removal of the P2 activity is determined by a parallel sample in which extract #1 is mixed with assay mix and NADH. […] Samples are analyzed by PrnC_Iso method described below. The 220 nm absorbance chromatogram is analyzed and integrated. PrnC activity is expressed as 100 times the ratio of the APRN peak area to the sum of the peak areas of APRN and MDA. Assuming equal extinction coefficients at 220 nm the calculated ratio is equivalent to the net % conversion of MDA to APRN by halogenation.
HPLC Analytical method PrnC_Iso The HPLC instrument used is a Waters Alliance HPLC system with photodiode array detector and is equipped with a 4.6×50 mm column packed with C18-Silica, particle size 3 micrometer. […] Absorbance data are collected from 210 to 400 nm with a resolution of 2.4 nm and a sampling rate of 5/s. […]

| Molecule | Net 7-Cl-Trp produced (PrnA [1]) | net product formation 7-Cl-Trp (PrnA [2]; NADH mixture) | PrnC activity, conversion of MDA to APRN (PrnC) | net product formation 7-Cl-Trp (PrnA [2]; NADPH mixture) |
| --- | --- | --- | --- | --- |
| B1 | 8.44 nmol | 21.46 ± 1.02 nmol | 51.8% |  |
| B2 |  | 0.31 ± 0.11 nmol |  |  |
| B3 |  |  |  | 3.35 ± 0.23 nmol |
| B4 | 4.22 nmol |  | 1.8% |  |
| B5 | 0.11 nmol |  | 4.0% |  |
